Patent US20230035798A1 (CAPELLA BIOSCIENCE, published 2023)
Substitutions are numbered along the chain they refer to. In names and notes the source's numbering stands.

B1: 3B04_var8 (antibody, human IgG4, V domains shown)
VH: QVQLVQSGAEVKKPGASVKVSCKASGYTFTDYEMHWVRQAPGQGLEWMGEIDPETGDTAYAQKFQGRVTLTADKSTSTAYMELSSLRSEDTAVYYCSRETDYFFDYWGQGTLVTVSS
VL: DIQMTQSPSSLSASVGDRVTITCGASENIYGALNWYQRKQGKAPKLLIYGATNLADGVPSRFSGSGSGRDYTLTISSLQPEDFATYYCQNVLTTPWTFGQGTKLEIKR
notes: human IgG4 (S241P, L248E, Kabat); also called 3B04 VL2VH4 (var8)
B2: 3D12_var13 (antibody, human IgG4, V domains shown)
VH: B1 VH with G26D, Y32S, M34I, M48I, D57G, A61N, Q65K, V68A
VL: B1 VL with G24R, R38Q, Q40P, D56E, F83V, T93S
notes: human IgG4 (S241P, L248E, Kabat); also called 3D12 VL4VH1 (var13)
B3: 3B04_var2 (antibody, human IgG4, V domains shown)
VH: B1 VH with M48I, A61S, L83F
VL: B1 VL with K45Q, P59S
notes: human IgG4 (S241P, L248E, Kabat); also called 3B04 VL1VH2 (var2)
B4: 3B04_var9 (antibody, human IgG4, V domains shown)
VH: B1 VH with M48I, A61S, Q65K, V68A, L83F
VL: B1 VL with R38Q, Q40P
notes: human IgG4 (S241P, L248E, Kabat); also called 3B04 VL3VH1 (var9)
B5: 3B04_var15 (antibody, human IgG4, V domains shown)
VH: B1 VH with L83F
VL: B1 VL with G24R, R38Q, Q40P, D56E
notes: human IgG4 (S241P, L248E, Kabat); also called 3B04 VL4VH3 (var15)
B6: 3D12_var15 (antibody, human IgG4, V domains shown)
VH: B1 VH with G26D, Y32S, M34I, D57G
VL: B1 VL with G24R, R38Q, Q40P, D56E, F83V, T93S
notes: human IgG4 (S241P, L248E, Kabat); also called 3D12 VL4VH3 (var15)
B7: 3D12_var4 (antibody, human IgG4, V domains shown)
VH: B1 VH with Y32S, D57G
VL: B1 VL with K45Q, P59S, F83V, T93S
notes: human IgG4 (S241P, L248E, Kabat); also called 3D12 VL1VH4 (var4)
B8: 3D12_var8 (antibody, human IgG4, V domains shown)
VH: B1 VH with Y32S, D57G
VL: B1 VL with F83V, T93S
notes: human IgG4 (S241P, L248E, Kabat); also called 3D12 VL2VH4 (var8)
B9: 3D12_var7 (antibody, human IgG4, V domains shown)
VH: B1 VH with G26D, Y32S, M34I, D57G
VL: B1 VL with F83V, T93S
notes: human IgG4 (S241P, L248E, Kabat); also called 3D12 VL2VH3 (var7)
B10: 3D12_var14 (antibody, human IgG4, V domains shown)
VH: B1 VH with G26D, Y32S, M34I, M48I, D57G, A61N
VL: B1 VL with G24R, R38Q, Q40P, D56E, F83V, T93S
notes: human IgG4 (S241P, L248E, Kabat); also called 3D12 VL4VH2 (var14)
B11: 3D12_var16 (antibody, human IgG4, V domains shown)
VH: B1 VH with Y32S, D57G
VL: B1 VL with G24R, R38Q, Q40P, D56E, F83V, T93S
notes: human IgG4 (S241P, L248E, Kabat); also called 3D12 VL4VH4 (var16)
B12: 3B04_var11 (antibody, human IgG4, V domains shown)
VH: B1 VH with L83F
VL: B1 VL with R38Q, Q40P
notes: human IgG4 (S241P, L248E, Kabat); also called 3B04 VL3VH3 (var11)
B13: 3B04_var12 (antibody, human IgG4, V domains shown)
VH: B1 VH
VL: B1 VL with R38Q, Q40P
notes: human IgG4 (S241P, L248E, Kabat); also called 3B04 VL3VH4 (var12)
B14: 3D12_var5 (antibody, human IgG4, V domains shown)
VH: B1 VH with G26D, Y32S, M34I, M48I, D57G, A61N, Q65K, V68A
VL: B1 VL with F83V, T93S
notes: human IgG4 (S241P, L248E, Kabat); also called 3D12 VL2VH1 (var5)
B15: 3D12_var9 (antibody, human IgG4, V domains shown)
VH: B1 VH with G26D, Y32S, M34I, M48I, D57G, A61N, Q65K, V68A
VL: B1 VL with R38Q, Q40P, F83V, T93S
notes: human IgG4 (S241P, L248E, Kabat); also called 3D12 VL3VH1 (var9)
B16: 3B04_var7 (antibody, human IgG4, V domains shown)
VH: B1 VH with L83F
VL: B1 VL
notes: human IgG4 (S241P, L248E, Kabat); also called 3B04 VL2VH3 (var7)
B17: 3B04_var5 (antibody, human IgG4, V domains shown)
VH: B1 VH with M48I, A61S, Q65K, V68A, L83F
VL: B1 VL
notes: human IgG4 (S241P, L248E, Kabat); also called 3B04 VL2VH1 (var5)
B18: 3B04_var1 (antibody, human IgG4, V domains shown)
VH: B1 VH with M48I, A61S, Q65K, V68A, L83F
VL: B1 VL with K45Q, P59S
notes: human IgG4 (S241P, L248E, Kabat); also called 3B04 VL1VH1 (var1)
B19: 3D12_var6 (antibody, human IgG4, V domains shown)
VH: B1 VH with G26D, Y32S, M34I, M48I, D57G, A61N
VL: B1 VL with F83V, T93S
notes: human IgG4 (S241P, L248E, Kabat); also called 3D12 VL2VH2 (var6)
B20: 3B04_var3 (antibody, human IgG4, V domains shown)
VH: B1 VH with L83F
VL: B1 VL with K45Q, P59S
notes: human IgG4 (S241P, L248E, Kabat); also called 3B04 VL1VH3 (var3)
B21: 3D12_var3 (antibody, human IgG4, V domains shown)
VH: B1 VH with G26D, Y32S, M34I, D57G
VL: B1 VL with K45Q, P59S, F83V, T93S
notes: human IgG4 (S241P, L248E, Kabat); also called 3D12 VL1VH3 (var3)
B22: 3B04_var16 (antibody, human IgG4, V domains shown)
VH: B1 VH
VL: B1 VL with G24R, R38Q, Q40P, D56E
notes: human IgG4 (S241P, L248E, Kabat); also called 3B04 VL4VH4 (var16); 3B04 variant 16
B23: 3B04_var6 (antibody, human IgG4, V domains shown)
VH: B1 VH with M48I, A61S, L83F
VL: B1 VL
notes: human IgG4 (S241P, L248E, Kabat); also called 3B04 VL2VH2 (var6)
B24: 3D12_var2 (antibody, human IgG4, V domains shown)
VH: B1 VH with G26D, Y32S, M34I, M48I, D57G, A61N
VL: B1 VL with K45Q, P59S, F83V, T93S
notes: human IgG4 (S241P, L248E, Kabat); also called 3D12 VL1VH2 (var2)
B25: 3D12_var11 (antibody, human IgG4, V domains shown)
VH: B1 VH with G26D, Y32S, M34I, D57G
VL: B1 VL with R38Q, Q40P, F83V, T93S
notes: human IgG4 (S241P, L248E, Kabat); also called 3D12 VL3VH3 (var11)
B26: 3B04_var13 (antibody, human IgG4, V domains shown)
VH: B1 VH with M48I, A61S, Q65K, V68A, L83F
VL: B1 VL with G24R, R38Q, Q40P, D56E
notes: human IgG4 (S241P, L248E, Kabat); also called 3B04 VL4VH1 (var13)
B27: 3D12_var10 (antibody, human IgG4, V domains shown)
VH: B1 VH with G26D, Y32S, M34I, M48I, D57G, A61N
VL: B1 VL with R38Q, Q40P, F83V, T93S
notes: human IgG4 (S241P, L248E, Kabat); also called 3D12 VL3VH2 (var10)
B28: 3B04_var4 (antibody, human IgG4, V domains shown)
VH: B1 VH
VL: B1 VL with K45Q, P59S
notes: human IgG4 (S241P, L248E, Kabat); also called 3B04 VL1VH4 (var4)
B29: 3B04_var14 (antibody, human IgG4, V domains shown)
VH: B1 VH with M48I, A61S, L83F
VL: B1 VL with G24R, R38Q, Q40P, D56E
notes: human IgG4 (S241P, L248E, Kabat); also called 3B04 VL4VH2 (var14)
B30: 3B04_var10 (antibody, human IgG4, V domains shown)
VH: B1 VH with M48I, A61S, L83F
VL: B1 VL with R38Q, Q40P
notes: human IgG4 (S241P, L248E, Kabat); also called 3B04 VL3VH2 (var10)
B31: 3D12_var1 (antibody, human IgG4, V domains shown)
VH: B1 VH with G26D, Y32S, M34I, M48I, D57G, A61N, Q65K, V68A
VL: B1 VL with K45Q, P59S, F83V, T93S
notes: human IgG4 (S241P, L248E, Kabat); also called 3D12 VL1VH1 (var1)
B32: 3D12_var12 (antibody, human IgG4, V domains shown)
VH: B1 VH with Y32S, D57G
VL: B1 VL with R38Q, Q40P, F83V, T93S
notes: human IgG4 (S241P, L248E, Kabat); also called 3D12 VL3VH4 (var12)
B33: HVEM-Fc (Fc fusion, UniProt Q92956 37-202, looked up)
chain: PALPSCKEDEYPVGSECCPKCSPGYRVKEACGELTGTVCEPCPPGTYIAHLNGLSKCLQCQMCDPAMGLRASRNCSRTENAVCGCSPGHFCIVQDGDHCAACRAYATSSPGQRVQKGGTESQDTLCQNCPPGTFSPNGTLEECQHQTKCSWLVTKAGAGTSSSHWV
modifications: biotinylated (EZ-Link NHS-LC-Biotin) in the competition assays
notes: also called biotin-HVEM-Fc; biotinylated HVEM-Fc; not shown: Fc part of the bought fusion protein
B34: LTβR-Fc (Fc fusion, UniProt P36941 28-227, looked up)
chain: SQPQAVPPYASENQTCRDQEKEYYEPQHRICCSRCPPGTYVSAKCSRIRDTVCATCAENSYNEHWNYLTICQLCRPCDPVMGLEEIAPCTSKRKTQCRCQPGMFCAAWALECTHCELLSDCPPGTEAELKDEVGKGNNHCVPCKAGHFQNTSSPSARCQPHTRCENQGLVEAAPGTAQSDTTCKNPLEPLPPEMSGTMLM
modifications: biotinylated (EZ-Link NHS-LC-Biotin) in the competition assays
notes: also called LTBR-Fc; biotin-LTβR-Fc; not shown: Fc part of the bought fusion protein

The binders below were run against membrane LIGHT without residues 81-84 (EL4-NC-LIGHT cells) (human, UniProt O43557 1-240) (assay: cell-based or functional assay).
Chain of membrane LIGHT without residues 81-84 (EL4-NC-LIGHT cells) (O43557 other isoform, or with tags, fused parts or gaps): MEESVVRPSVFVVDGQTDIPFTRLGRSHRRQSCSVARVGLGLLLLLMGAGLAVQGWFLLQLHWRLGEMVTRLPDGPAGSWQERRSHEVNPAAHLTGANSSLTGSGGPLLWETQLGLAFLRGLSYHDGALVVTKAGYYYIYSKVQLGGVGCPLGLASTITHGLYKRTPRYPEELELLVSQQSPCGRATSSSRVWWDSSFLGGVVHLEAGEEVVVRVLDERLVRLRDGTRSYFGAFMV

Binder | IC50, inhibition of IL-8 secretion from HT-29 cells (EL4-NC-LIGHT cells) [nM]
B1 | 0.05
B2 | 0.45
B3 | 0.06
B4 | 0.09
B5 | 0.1
B6 | 0.38
B7 | 0.66
B8 | 0.67
B9 | 0.54
B10 | 0.45
B11 | 0.52
B12 | 0.06
B13 | 0.07
B14 | 0.59
B15 | 0.71
B16 | 0.05

Binder | IC50, inhibition of IL-8 secretion from HT-29 cells (EL4-NC-LIGHT cells) [nM]
B17 | 0.04
B18 | 0.05
B19 | 0.47
B20 | 0.04
B21 | 0.53
B22 | 0.1
B23 | 0.08
B24 | 0.74
B25 | 0.55
B26 | 0.04
B27 | 0.44
B28 | 0.04
B29 | 0.05
B30 | 0.04
B31 | 0.33
B32 | 0.58

These binders were tested against T1, human LIGHT (TNFSF14), full length, membrane-bound (214E allele) (human, UniProt O43557 1-240) (assay: flow cytometry, EL4-LIGHT cells).
T1 construct: also called membrane LIGHT; human membrane LIGHT
T1 sequence (O43557 whole entry K214E): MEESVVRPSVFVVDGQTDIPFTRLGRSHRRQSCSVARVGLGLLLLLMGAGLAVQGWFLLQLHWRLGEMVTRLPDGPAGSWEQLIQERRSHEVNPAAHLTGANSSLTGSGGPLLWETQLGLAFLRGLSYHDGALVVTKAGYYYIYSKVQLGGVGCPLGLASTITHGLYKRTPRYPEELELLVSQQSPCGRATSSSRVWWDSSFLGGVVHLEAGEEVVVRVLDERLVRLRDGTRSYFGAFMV

Binder | EC50 [nM]
B1 | 0.28
B2 | 0.24
B3 | 0.38
B4 | 0.26
B5 | 0.39
B6 | 0.22
B7 | 0.32
B8 | 0.31
B9 | 0.38
B10 | 0.23
B11 | 0.26
B12 | 0.37
B13 | 0.24
B14 | 0.33
B15 | 0.36
B16 | 0.23

Binder | EC50 [nM]
B17 | 0.27
B18 | 0.24
B19 | 0.31
B20 | 0.32
B21 | 0.33
B22 | 0.24
B23 | 0.27
B24 | 0.47
B25 | 0.34
B26 | 0.32
B27 | 0.39
B28 | 0.26
B29 | 0.3
B30 | 0.49
B31 | 0.22
B32 | 0.33

Each binder was assayed against T1, human LIGHT (TNFSF14), full length, … (assay: flow cytometry, HEK293FF human LIGHT cells (value given in the method)).

Binder | EC50 [nM]
B33 | 45
B34 | 15
